Test results: publication PMC9637739

Tests used:
[1] = target: S. pneumoniae IgA1P-E1605A (Streptococcus pneumoniae) (UniProt Q59947); assay: ELISA; metallo-IgA1P mutant coated on Nunc MaxiSorp plate (20 nM by the methods, 100 nM by the legend of Fig. 2d), blocked 2 h at room temperature, human IgA1 with kappa LC added for 2 h, detected with anti-human IgA HRP and ABTS; estimated Kd
[2] = target: G. haemolysans IgA1P-E1848A (residues 907-2201) (Gemella haemolysans); assay: as above

For “Human IgA1 with kappa LC (monomeric) (antibody)”, the Kd [1] was 798 µM and the Kd [2] was 1090 µM.
